Test: soluble on expression in E. coli; label from the status in PepcDB or PDB records

| Sequence | soluble on expression in E. coli |
| --- | --- |
| MIFEKAVIVDLRTQVLDVPVQETITKDNVPVRVNAVVYFRVVDPVKAVTQVKNYIMATSQISQTTLRSVIGQAHLDELLSERDKLNMQLQRIIDEATDPWGIKVTAVEIKDVELPAGMQKAMARQAEAERERRARITLAEAERQAAEKLREAAEIISEHPMALQLRTLQTISDVAGDKSNLEHHHHHH | soluble |
| MLHKRFRRYSMLKRYGQIIEVLQKYGFGYIVDQIGLGSFGDFTSRLKKQEKRDEHNLSGPVRTRRILEELGPTYIKLGQLLSMRRDLVPLEYAAEFSKLQDDAPSFGFEEVELIIREELGLPVEDLFESFEKKPLACASIGQVHRAKLKNGDDVVVKVQRPGIKEVIESDLDIMYSLSRLLTEHIPEARLYRPVELVDELSRSILAEIDYSQEGWNTDRFAENFKDSEQIHIPKVYWDYTGLEHHHHHH | not soluble |
| MGSDKIHHHHHHMKALVVGACTRPVVNSLKKLNFEVYSVSHYNPVDLNADHKKYTINDKFHGHLADKYSEKELLNLSKEYVDLVDYIFVCSGIFESKTSKTPNWDVVGNSPKRIKNISDKYKTVKKLENLGFNVPVTYLVNNKYQFEKCLSELKSVVVKPISGSGGIGVTNIDFQNTDNLDINYPVLVQERIKSESYSASFIGSNFLCFNKQLINNNIYVGNISPYVLNLKNETIQEFEEVIASLDLLGMNGIDFMLKDGIPYIIEVNPRILGTYETIELSSRYNLSKAILENKPVKPKDCFFKKIVFSDKGSSYSIDKNPFLRDIPQKGTYIEEGEPVVTIIGRNMADVREMECGILRGV | not soluble |
| GPGSMLRSLFGRPSLAVLNNYGHMARPASPLLCSQRGVFADRVRAGMILKVDKRYYRVLANTRSQKGQNAASFNIKLTEVGTGRKKEVTAGHGHDFAEARAERVRLLFSGFDDDDMACFVYPEHSSDAGKEVNIPGDSLPELQQKFLCCGMPVDVLHIMPDDDESPNEKDIWSEVVMPSNYTYTVEKLTLKGMYKMAAFVECDGIIGVNDSVQVNDKVKVVIKPDGTAAFGGRAT | not soluble |
| MGSDKIHHHHHHMSYDLPRLTPDKDFKVPSACGVSGIMNTSGKRFSGSVIVESMALMRERGNGLGAGYAAYGIYPELKDLYCFHMLYDSDLDKKNAEEYIKDHYEIIESEPIPTRKNPHIKEVHILWRYFLKPKFIPEDMSEEDFVVSTVMFINEKINGAFVMSSGKNMGVFKGVGFPEDIADFYRIDEYKGYIWTAHNRFPTNTVGWWGGAHPFGILDWTVVHNGEISSYGINRRFLEAYGYKCTLMTDTEVVAYLVDLFMRRFGYSPQLTAKILAAPLWKDIDLMPEEERKLYTALRMNYGGALLNGPFAIIVANNNMMMGLNDRIKLRPLVAATKDDFLYIASEESAIRVVCPEPDEVWAPKAGDPVVGVLKSARKTQVVLEGENG | not soluble |
| MTLKMGRVKWFNQSEGYGFISPHDGGSDVYVNKTAIANTKNKSLNEGQDVEFSTYRSIHGPSAADVIAF | not soluble |
| YFKEKKIHPEAEMFDNRGFGVVAMMGLPLAGKDTYIKENFKNINVISLDDIREELNISSKRNSGKVAAIAISRAKQLLRRKESFIWNATNLRRENRQKLIRLCTAYGAKLKFIYLEVPYRELLSRNKMRSRYVPVEVINKMIRKMDMLEGEEIC | not soluble |
| MGSDKIHHHHHHMSSVGDFEEIILHDLKPYYHVPGAIHSEGITFVKETGTLLWVDIFKGEVHKVEDIEQPESSHSFFSISRANYGKNASIEYPPNPDELKESVGCIFPILDGASQNEIKQVLFGSKFGIGKLDFSKSEWEYVILYSECPELSTDRAYKLRSNDGNVSPDGKYIYVGLMSDFPFDLEPIGCLLRVDLLAHKIELVWNCLLIPNAIHWDESDQKTMYVTDSLNFTIWKCPGGDLLKRDELIDVKNSNNQSFESPEPDGSAIWFSKDGKHSGFLFITVWSTSKVQMFDLTNGKLLKEFILPEQTPRVSCCCFVGKDLFVTTANAEINDAVRTNTDKNGGCIYKIPNVLDGNVPLESTKRQPLH | not soluble |
| MYVQLSQRLKDVATYVPKGAKLLDVGSDHAYLPIYLLEKGLITSAIAGEVVKGPYESALANVSASGFNDKIDVRLANGLAAFEPYDAVTTITICGMGGRLIADILDAGKDKLKDVDRLILQPNNREDDLRIWLMENGFTIVAEAIMTEN | not soluble |

Source: the DeepSol protein solubility set
